Results as given in the RNAGym collection of RNA variant scans (doi:10.7554/elife.80360).

B1: Hairpin Ribozyme (parent)
chain: GUCCUCUUUCACGUGCGCGUGAAAGAGAGAAGUGAACCAGAGAAACACACGUUGUGGUAUAUUACCUGGUA

Variants of: B1
Assay: self-cleavage, relative activity (ratio to wild type); higher = more cleavage; co-transcriptional
Work on GUCCUCUUGCACGUGCGCGUGAAAGAGAGAAGUGAACCAGAGAACCACACGUUGUGGUAUAUUACCUGGUA [U9G A45C] yielded a self-cleavage of 0.0983. With GUCCUCUUCCACGUGCGCGUAAAAGAGAGAAGUGAACCAGAGAAACACACGUUGUGGUAUAUUACCUGGUA [U9C G21A] the self-cleavage was 0.5. In the case of GUCCUCUUCCACGUGCGCGUCAAAGAGAGAAGUGAACCAGAGAAACACACGUUGUGGUAUAUUACCUGGUA [U9C G21C], the self-cleavage is reported as 0.479. GUCCUCUUGCACGUGCGCGUGAAGGAGAGAAGUGAACCAGAGAAACACACGUUGUGGUAUAUUACCUGGUA [U9G A24G] gave a self-cleavage of 0.672. Work on GUCCUCUUCCACGUGCGCGUGAAAGAGAGAAGUGAACCAGAGAAACACACCUUGUGGUAUAUUACCUGGUA [U9C G51C] yielded a self-cleavage of 0.761. In the case of GUCCUCUUCCACGUGCGCGUGAAAGAGAGAAGUGAACCAGAGAAACACACAUUGUGGUAUAUUACCUGGUA [U9C G51A], the self-cleavage is reported as 0.775. With GUCCUCUUCCACGUGCGCGUGAAAGAGAGAAGUGAACCAGAGAAACACACGUUGUGGCAUAUUACCUGGUA [U9C U58C] the self-cleavage was 0.747. For GUCCUCUUCCACGUGCGCGUGAAAGACAGAAGUGAACCAGAGAAACACACGUUGUGGUAUAUUACCUGGUA [U9C G27C], the self-cleavage was 0.109. GUCCUCUUCCACGUGCGCGUGAAAGAGAGAAGCGAACCAGAGAAACACACGUUGUGGUAUAUUACCUGGUA [U9C U33C] showed a self-cleavage of 0.104. In the case of GUCCUCUUCCACGUGCGCGUGAAAGAGAGAAGUGAACCAGAGAAACACACGUUGUGCUAUAUUACCUGGUA [U9C G57C], the self-cleavage is reported as 0.0619. GUCCUCUUGCACGUGCGCGUGGAAGAGAGAAGUGAACCAGAGAAACACACGUUGUGGUAUAUUACCUGGUA [U9G A22G] showed a self-cleavage of 0.79. In the case of GUCCUCUUGCACGUGCGCGUGAAAGAGUGAAGUGAACCAGAGAAACACACGUUGUGGUAUAUUACCUGGUA [U9G A28U], the self-cleavage is reported as 0.46. With GUCCUCUUGCACGUGCGCGUGAAAGAGAGAAGUGAACCCGAGAAACACACGUUGUGGUAUAUUACCUGGUA [U9G A39C] the self-cleavage was 0.356. For GUCCUCUUCCACGUGCGCGUGAAAGAGAGAAUUGAACCAGAGAAACACACGUUGUGGUAUAUUACCUGGUA [U9C G32U], the self-cleavage was 0.0498. In the case of GUCCUCUUGCACGUGCGCGUGAAAGAGAGAAGUGACCCAGAGAAACACACGUUGUGGUAUAUUACCUGGUA [U9G A36C], the self-cleavage is reported as 0.381. GUCCUCUUGCACGUGCGCGUGAAAGAGAGAAGUGAGCCAGAGAAACACACGUUGUGGUAUAUUACCUGGUA [U9G A36G] gave a self-cleavage of 0.793. In the case of GUCCUCUUGCACGUGCGCGUGAAAGAGAGAAGUGAUCCAGAGAAACACACGUUGUGGUAUAUUACCUGGUA [U9G A36U], the self-cleavage is reported as 0.431. In the case of GUCCUCUUCCACGUGCGCAUGAAAGAGAGAAGUGAACCAGAGAAACACACGUUGUGGUAUAUUACCUGGUA [U9C G19A], the self-cleavage is reported as 0.704. For GUCCUCUUCCACGUGCGCGUGAAAGAGAGAAGUGAACCAGAGAAACACACGUUGUGGUAUAGUACCUGGUA [U9C U62G], the self-cleavage was 0.199. GUCCUCUUCCACGUGCGCGUGAAAGAGAGAAGUGAACCAGAGAAACACACGUUGUGGUAUAUUACCUUGUA [U9C G68U] gave a self-cleavage of 0.217. GUCCUCUUGCUCGUGCGCGUGAAAGAGAGAAGUGAACCAGAGAAACACACGUUGUGGUAUAUUACCUGGUA [U9G A11U] showed a self-cleavage of 0.566. Variant GUCCUCUUCCACGUGCGCGUGAAAGAGAGAAGUGAACCAGAGAAACACACGUUGUGGUAUAUUACCUGGGA [U9C U70G] has a self-cleavage of 0.687. For GUCCUCUUCCACGUGCGCGUGAAAGAGAGAAGUGAACCAGAGAAACACACGUUGUGGUAUAUUACCCGGUA [U9C U67C], the self-cleavage was 0.203. In the case of GUCCUCUUCCACGUGCGCGUGAAAGAGAGAAGUGAACCAGAGAAACACACGUUGUGGUAUAUUACCGGGUA [U9C U67G], the self-cleavage is reported as 0.283. GUCCUCUUGCACGUGCGCGUGAAAGAGAGAAGUGAACCAGAGAAACGCACGUUGUGGUAUAUUACCUGGUA [U9G A47G] gave a self-cleavage of 0.231. For GUCCUCUUCCACGUGCGCGUGAAAGAGAGAAGUGAACCAGAGAAACACACGUUAUGGUAUAUUACCUGGUA [U9C G54A], the self-cleavage was 0.501. Variant GUCCUCUUCCACGUGCGCGUGAAAGAGAGAAGUGAACCAGAGAAACACACGUUCUGGUAUAUUACCUGGUA [U9C G54C] has a self-cleavage of 0.413. In the case of GUCCUCUUCCACGUGCGCGUGAAAGAGAGAAGUGAACCAGAGAAACACACGUUGUGGUAUAUAACCUGGUA [U9C U63A], the self-cleavage is reported as 0.131. Work on GUCCUCUUGCACGUGCGCGUGAAAGAGAGAAGUGGACCAGAGAAACACACGUUGUGGUAUAUUACCUGGUA [U9G A35G] yielded a self-cleavage of 0.546. Work on GUCCUCUUCCACGUGCGCGUGAAAGAGAGAAGUGAACCAGAGAAACACACGUUGGGGUAUAUUACCUGGUA [U9C U55G] yielded a self-cleavage of 0.266. With GUCCUCUUGCACGUGCGCGUGAAAGAGAGAAGUGAACCAGAGAUACACACGUUGUGGUAUAUUACCUGGUA [U9G A44U] the self-cleavage was 0.162. In the case of GUCCUCUUGCACGUGCGCGUGAAAGAGAGAAGUGAACCAGUGAAACACACGUUGUGGUAUAUUACCUGGUA [U9G A41U], the self-cleavage is reported as 1.15. With GUCCUCUUCCACGUGCGCGUGAAACAGAGAAGUGAACCAGAGAAACACACGUUGUGGUAUAUUACCUGGUA [U9C G25C] the self-cleavage was 0.314. Work on GUCCUCUUCCACGUGCGCGUGAAAAAGAGAAGUGAACCAGAGAAACACACGUUGUGGUAUAUUACCUGGUA [U9C G25A] yielded a self-cleavage of 0.24. For GUCCUCUUCCACGUGCGCGUGAAAGAGAGAAGUGAACCAGAGAAACACACGUUGUGGUAGAUUACCUGGUA [U9C U60G], the self-cleavage was 0.615. GUCCUCUUCCACGCGCGCGUGAAAGAGAGAAGUGAACCAGAGAAACACACGUUGUGGUAUAUUACCUGGUA [U9C U14C] gave a self-cleavage of 0.533. GUCCUCUUGCACGUGCGCGUGACAGAGAGAAGUGAACCAGAGAAACACACGUUGUGGUAUAUUACCUGGUA [U9G A23C] gave a self-cleavage of 0.589. In the case of GUCCUCUUGCACGUGCGCGUGAUAGAGAGAAGUGAACCAGAGAAACACACGUUGUGGUAUAUUACCUGGUA [U9G A23U], the self-cleavage is reported as 0.482.
